Reference: doi:10.1101/317909

Target: T1, ZC3H12B PIN-ZnF fragment (human, UniProt Q5HYM0 179-397)
T1 sequence: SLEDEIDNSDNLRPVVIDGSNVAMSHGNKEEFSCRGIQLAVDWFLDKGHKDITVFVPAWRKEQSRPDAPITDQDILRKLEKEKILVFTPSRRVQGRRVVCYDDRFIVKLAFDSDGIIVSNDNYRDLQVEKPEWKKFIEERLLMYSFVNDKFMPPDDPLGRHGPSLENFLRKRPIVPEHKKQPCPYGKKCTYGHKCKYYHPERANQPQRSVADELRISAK
Assay: X-ray crystallography

AAUGCGACAGUCGGUAGCAUC (ssRNA, phosphorothioate bond between nt 1 and 2 (5' end)) [21-nt HTR-SELEX-enriched RNA]: binds.
